Measurements taken from patent publication US7622265B2, “Methods and compositions for modulating prostasin” (Genentech, Inc., priority 2005, dated 2009).
Where no end group is shown, it is not given here.

Key:
prostasin [1] = biological target: T1, prostasin (Homo sapiens, UniProt Q16651); assay: Enzyme inhibition assay (amidolytic activity of prostasin towards S2765); type: biochemical; set-up: made in house; host or cells: CHO cells (transient transfection, pRK5E); purified from conditioned medium on aprotinin-agarose; settings: for inhibition of prostasin enzymatic activity (in words): substrate S2765
Description: The increase in absorbance at 405 nm was monitored on a kinetic microplate reader (Molecular Devices, Sunnyvale, Calif.). The linear rates of the increase in absorbance were expressed as percentage activities (100%×vi/v0). […] At least three independent experiments were performed for each inhibitor.
Target sequence in this assay (Q16651 45-322 limits assumed, other chains not shown): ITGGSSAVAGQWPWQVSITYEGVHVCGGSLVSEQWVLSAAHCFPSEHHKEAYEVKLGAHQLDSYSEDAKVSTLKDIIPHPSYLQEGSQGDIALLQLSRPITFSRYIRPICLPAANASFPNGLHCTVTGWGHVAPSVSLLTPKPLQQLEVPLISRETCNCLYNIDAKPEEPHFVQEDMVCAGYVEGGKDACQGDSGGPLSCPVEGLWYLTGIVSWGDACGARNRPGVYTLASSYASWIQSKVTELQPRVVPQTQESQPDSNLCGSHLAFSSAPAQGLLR

prostasin [2] = biological target: T1, prostasin; assay: Prostasin binding assay (complex formation, immunoblotting); set-up: made in house; host or cells: CHO cells (transient transfection, pRK5E); purified from conditioned medium on aprotinin-agarose; settings: 20 nM sHAI-1B, 37° C., 0.5 or 2 h, immunoblot with anti-HAI-1B polyclonal antibody
Description: Prostasin binding assay—Purified prostasin and sHAI-1B were diluted in 20 mM Tris-Cl, pH 9.0 containing 0.01% Triton X-100 (TT buffer) to the final concentration as indicated. The mixture was incubated at 37° C. for 0.5 h or 2 h and the reaction was stopped by addition of SDS sample buffer with DTT. 30 μl of each sample was analyzed by immunoblotting.
Prostasin and sHAI-1B form 1:1 complexes—Soluble prostasin was purified from conditioned medium of CHO cells transiently transfected with full-length prostasin. […] Prostasin was incubated with sHAI-1B comprising the entire extracellular domain of HAI-1B (Kirchhofer, Peek et al. 2003) at different molar ratios (FIG.2A). Increasing concentrations of prostasin shifted the sHAI-1B band (55 kDa) to the higher molecular mass species of 85 kDa, indicating the formation of prostasin:sHAI-1B complexes. At a 10-fold molar excess of prostasin, almost all sHAI-1B was bound to prostasin. Immunoblotting with anti-prostasin antibody confirmed that the 85 kDa band comprised complexes of sHAI-1B and prostasin (data not shown).
Target sequence in this assay (Q16651 45-322 limits assumed, other chains not shown): as above

prostasin [3] = biological target: T1, prostasin; settings: purified enzyme system; cited from earlier work
Target sequence in this assay (Q16651 33-343, species assumed): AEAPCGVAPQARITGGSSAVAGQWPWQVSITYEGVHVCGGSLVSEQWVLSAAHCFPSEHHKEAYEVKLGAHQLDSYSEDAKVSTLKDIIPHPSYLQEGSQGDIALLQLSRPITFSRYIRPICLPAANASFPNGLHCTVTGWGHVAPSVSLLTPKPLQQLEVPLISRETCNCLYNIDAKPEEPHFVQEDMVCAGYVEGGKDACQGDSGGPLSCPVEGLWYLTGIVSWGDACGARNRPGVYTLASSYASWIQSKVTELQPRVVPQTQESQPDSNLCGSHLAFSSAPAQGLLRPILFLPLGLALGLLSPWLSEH

Row | Molecule | inhibition of prostasin enzymatic activity (in words) (prostasin [1]; prostasin 3 nM) | IC50 (prostasin [1]; prostasin 3 nM, substrate S2765 0.05 mM, TT buffer, 20 min preincubation at room temperature, averages ± S.D. of at least three independent experiments, read-out: IC50 (nM), effects of inhibitors on the activity of prostasin) | complex formation with prostasin (prostasin [2]) | fold less potent than wildtype sHAI-1B (prostasin [1]; IC50 compared with wildtype sHAI-1B) | inhibition of prostasin activity (in words) (prostasin [3])
1 | APPI: Alzheimer's amyloid β protein precursor inhibitor, a Kunitz domain (VREVCSEQAETGPCRAMISRWYFDVTEGKCAPFFYGGCGGNRNNFDTEEYCMAVCGSA; ends and bridges not checked; cysteine pairing not given here) [reference compound] | did not inhibit prostasin | > 1000 nM | – | – | –
2 | sHAI-1B K401A: KD2 mutant of sHAI-1B, P1 residue Lys401 (in KD2) changed to Ala (protein) GPPPAPPGLPAGADCLNSFTAGVPGFVLDTNASVSNGATFLESPTVRRGWDCVRACCTTQNCNLALVELQPDRGEDAIAACFLINCLYEQNFVCKFAPREGFINYLTREVYRSYRQLRTQGFGGSGIPKAWAGIDLKVQPQEPLVLKDVENTDWRLLRGDTDVRVERKDPNQVELWGLKEGTYLFQLTVTSSDHPEDTANVTVTVLSTKQTEDYCLASNKVGRCRGSFPRWYYDPTEQICKSFVYGGCLGNKNNYLREEECILACRGVQGGPLRGSSGAQATFPQGPSMERRHPVCSGTCQPTQFRCSNGCCIDSFLECDDTPNCPDASDEAACEKYTSGFDELQRIHFPSDKGHCVDLPDTGLCAESIPRWYYNPFSEHCARFTYGGCYGNKNNFEEEQQCLESCRGISKKDVFGLRREIPIPSTGSVE | inhibitory potency comparable to the wildtype | – | still formed an 85 kDa complex with prostasin | – | –
3 | sHAI-1B R260A: KD1 mutant of sHAI-1B, P1 residue Arg260 (in KD1) changed to Ala (protein) GPPPAPPGLPAGADCLNSFTAGVPGFVLDTNASVSNGATFLESPTVRRGWDCVRACCTTQNCNLALVELQPDRGEDAIAACFLINCLYEQNFVCKFAPREGFINYLTREVYRSYRQLRTQGFGGSGIPKAWAGIDLKVQPQEPLVLKDVENTDWRLLRGDTDVRVERKDPNQVELWGLKEGTYLFQLTVTSSDHPEDTANVTVTVLSTKQTEDYCLASNKVGRCAGSFPRWYYDPTEQICKSFVYGGCLGNKNNYLREEECILACRGVQGGPLRGSSGAQATFPQGPSMERRHPVCSGTCQPTQFRCSNGCCIDSFLECDDTPNCPDASDEAACEKYTSGFDELQRIHFPSDKGHCVDLPDTGLCKESIPRWYYNPFSEHCARFTYGGCYGNKNNFEEEQQCLESCRGISKKDVFGLRREIPIPSTGSVE | – | – | did not | at least 18 fold | –
4 | HAI-2: hepatocyte growth factor activator inhibitor-2, a bi-Kunitz type serine protease inhibitor (protein, UniProt O43291 28-252, looked up) Kunitz-type protease …: ADRERSIHDFCLVSKVVGRCRASMPRWWYNVTDGSCQLFVYGGCDGNSNNYLTKEECLKKCATVTENATGDLATSRNAADSSVPSAPRRQDSEDHSSDMFNYEEYCTANAVTGPCRASFPRWYFDVERNSCNNFIYGGCRGNKNSYRSEEACMLRCFRQQENPPLPLGSKVVVLAGLFVMVLILFLGASMVYLIRVARRNQERALRTVWSSGDDKEQLVKNTYVL | – | – | – | – | potently inhibit prostasin activity
